Assay results: US20120316071A1 (published 2012)
Blank lines part the entries; values can stand above or below the binder they belong to.

Tests used:
[1] = target: T1, rHuman Notch-1/Fc Chimera, CF (R&D Systems Cat#3647-TK) (human, UniProt P46531 19-526); assay: MSD multispot ECL, antigen spotted on plate; Fab 0.07438 uM; blank spot 2504
T1 construct: Bought recombinant protein; Fc part of the bought chimera not given

[2] = target: T2, Recombinant Human DLL4 (R&D Systems Cat#1506-D4/CF) (human, UniProt Q9NR61 27-524); assay: as above
T2 construct: Bought recombinant protein; also called delta-like protein 4; rHuman DLL4

[3] = target: T3, rHuman P-Cadherin/Fc Chimera, CF (R&D Systems Cat#861-PC) (human, UniProt P22223 108-654); assay: as above
T3 construct: Bought recombinant protein; Fc part of the bought chimera not given

[4] = target: T4, rHuman Erythropoietin R/Fc Chimera, CF (R&D Systems Cat#963-ER) (human, UniProt P19235 25-250); assay: as above
T4 construct: Bought recombinant protein; also called EPO R/Fc; Epo R; Fc part of the bought chimera not given
T4 sequence (looked up): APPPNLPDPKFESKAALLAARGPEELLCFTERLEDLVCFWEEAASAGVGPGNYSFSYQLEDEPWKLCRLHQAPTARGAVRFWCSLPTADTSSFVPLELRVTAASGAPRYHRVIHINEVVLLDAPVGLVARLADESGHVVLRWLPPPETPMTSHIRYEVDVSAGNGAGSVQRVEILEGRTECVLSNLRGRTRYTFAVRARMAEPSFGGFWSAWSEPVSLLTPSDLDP

[5] = target: T5, rHuman EGF R/Fc Chimera, CF (R&D Systems Cat#344-ER) (human, UniProt P00533 25-645); assay: as above
T5 construct: Bought recombinant protein; also called epidermal growth factor receptor; Fc part of the bought chimera not given

[6] = target: T1, rHuman Notch-1/Fc Chimera, CF (R&D …); assay: MSD multispot ECL, antigen spotted on plate; Fab 1.19 uM; blank spot 24999
[7] = target: T2, Recombinant Human DLL4 (R&D Systems …); assay: as above
[8] = target: T3, rHuman P-Cadherin/Fc Chimera, CF (R&D …); assay: as above
[9] = target: T4, rHuman Erythropoietin R/Fc Chimera, CF …; assay: as above
[10] = target: T5, rHuman EGF R/Fc Chimera, CF (R&D …); assay: as above
[11] = target: T1, rHuman Notch-1/Fc Chimera, CF (R&D …); assay: MSD multispot ECL, antigen spotted on plate; Fab 0.01859 uM; blank spot 1776
[12] = target: T2, Recombinant Human DLL4 (R&D Systems …); assay: as above
[13] = target: T3, rHuman P-Cadherin/Fc Chimera, CF (R&D …); assay: as above
[14] = target: T4, rHuman Erythropoietin R/Fc Chimera, CF …; assay: as above
[15] = target: T5, rHuman EGF R/Fc Chimera, CF (R&D …); assay: as above
[16] = target: T1, rHuman Notch-1/Fc Chimera, CF (R&D …); assay: MSD multispot ECL, antigen spotted on plate; Fab 0.2975 uM; blank spot 5019
[17] = target: T2, Recombinant Human DLL4 (R&D Systems …); assay: as above
[18] = target: T3, rHuman P-Cadherin/Fc Chimera, CF (R&D …); assay: as above
[19] = target: T4, rHuman Erythropoietin R/Fc Chimera, CF …; assay: as above
[20] = target: T5, rHuman EGF R/Fc Chimera, CF (R&D …); assay: as above
[21] = target: T6, rHuman IGF-1 sR, (IGF-1 sR), CF (R&D Systems Cat#391-GR) (human, UniProt P08069 31-932); assay: Multispot ECL (MSD) assay, antigen spotted on plate, Fab at 0.48 µM; blank spot 2945
T6 construct: Bought recombinant soluble receptor; also called insulin-like growth factor-1 soluble receptor

[22] = target: T6, rHuman IGF-1 sR, (IGF-1 sR), CF (R&D …); assay: Multispot ECL (MSD) assay, antigen spotted on plate, Fab at 0.0192 µM; blank spot 751
[23] = target: T6, rHuman IGF-1 sR, (IGF-1 sR), CF (R&D …); assay: Multispot ECL (MSD) assay, antigen spotted on plate, Fab at 0.096 µM; blank spot 917
[24] = target: T7, full-length human DLL4 expressed on the surface of CHO cells (human, UniProt Q9NR61 26-685); assay: flow cytometry; 250 nM biotinylated Notch-Fc on CHO-DLL4 cells, streptavidin-PE; no-Fab baseline of the blocking series
T7 construct: also called CHO-DLL4; DLL4-expressing CHO cells

ECL signal [1]: 22000
ECL signal [2]: 20700
ECL signal [3]: 14800
ECL signal [4]: 154000
ECL signal [5]: 16600
ECL signal [6]: 72000
ECL signal [7]: 74900
ECL signal [8]: 69700
ECL signal [9]: 193000
ECL signal [10]: 62500
ECL signal [11]: 17600
ECL signal [12]: 18900
ECL signal [13]: 11700
ECL signal [14]: 188000
ECL signal [15]: 11800
ECL signal [16]: 37500
ECL signal [17]: 34700
ECL signal [18]: 26000
ECL signal [19]: 167000
ECL signal [20]: 42200
B1: Fab VH1-46_IGHD6-13*01_IGHJ4*01 & L2_IGKJ1*01 (Fab, V domains shown)
VH: QVQLVQSGAEVKKPGASVKVSCKASGYTFTSYYMHWVRQAPGQGLEWMGIINPSGGSTSYAQKFQGRVTMTRDTSTSTVYMELSSLRSEDTAVYYCAREGYSSSWYDYFDYWGQGTLVTVSS
VL: not shown
notes: Germline library Fab expressed in E. coli; VH was cloned into Plasmid A, which adds CH1 with His6 and Flag tags

ECL signal [21]: 8930
ECL signal [22]: 1830
ECL signal [23]: 2450
B2: Fab VH1-46_IGHD6-13*01_IGHJ4*01 & A27_IGKJ1*01 (Fab, V domains shown)
VH: QVQLVQSGAEVKKPGASVKVSCKASGYTFTSYYMHWVRQAPGQGLEWMGIINPSGGSTSYAQKFQGRVTMTRDTSTSTVYMELSSLRSEDTAVYYCAREGYSSSWYDYFDYWGQGTLVTVSS
VL: not shown
notes: Germline Fab made in E. coli; VH was cloned in Plasmid A (CH1 constant region, His6 and Flag tags) and the kappa VL in Plasmid C (kappa CL); Only the variable domains are tied to this Fab by name

signal of biotinylated Notch-Fc bound to CHO-DLL4 cells without Fab (read-out not given) [24]: 531
B3: rHuman Notch-1/Fc Chimera (Fc fusion)
chain: ARGPRCSQPGETCLNGGKCEAANGTEACVCGGAFVGPRCQDPNPCLSTPCKNAGTCHVVDRRGVADYACSCALGFSGPLCLTPLDNACLTNPCRNGGTCDLLTLTEYKCRCPPGWSGKSCQQADPCASNPCANGGQCLPFEASYICHCPPSFHGPTCRQDVNECGQKPGLCRHGGTCHNEVGSYRCVCRATHTGPNCERPYVPCSPSPCQNGGTCRPTGDVTHECACLPGFTGQNCEENIDDCPGNNCKNGGACVDGVNTYNCRCPPEWTGQYCTEDVDECQLMPNACQNGGTCHNTHGGYNCVCVNGWTGEDCSENIDDCASAACFHGATCHDRVASFYCECPHGRTGLLCHLNDACISNPCNEGSNCDTNPVNGKAICTCPSGYTGPACSQDVDECSLGANPCEHAGKCINTLGSFECQCLQGYTGPRCEIDVNECVSNPCQNDATCLDQIGEFQCICMPGYEGVHCEVNTDECASSPCLHNGRCLDKINEFQCECPTGFTGHLCQ
notes: Bought from R&D Systems (Cat#3647-TK); also called Notch-Fc; Notch-FC; Fc part of the bought chimera not given
